{"source": "patent CN111138529A", "about": "(INST MILITARY MEDICINE ACADEMY MILITARY SCIENCES PLA, dated 2020)", "molecular_target": "T1, RESTV GP (RESTV, UniProt Q66799 34-651)", "T1 sequence": "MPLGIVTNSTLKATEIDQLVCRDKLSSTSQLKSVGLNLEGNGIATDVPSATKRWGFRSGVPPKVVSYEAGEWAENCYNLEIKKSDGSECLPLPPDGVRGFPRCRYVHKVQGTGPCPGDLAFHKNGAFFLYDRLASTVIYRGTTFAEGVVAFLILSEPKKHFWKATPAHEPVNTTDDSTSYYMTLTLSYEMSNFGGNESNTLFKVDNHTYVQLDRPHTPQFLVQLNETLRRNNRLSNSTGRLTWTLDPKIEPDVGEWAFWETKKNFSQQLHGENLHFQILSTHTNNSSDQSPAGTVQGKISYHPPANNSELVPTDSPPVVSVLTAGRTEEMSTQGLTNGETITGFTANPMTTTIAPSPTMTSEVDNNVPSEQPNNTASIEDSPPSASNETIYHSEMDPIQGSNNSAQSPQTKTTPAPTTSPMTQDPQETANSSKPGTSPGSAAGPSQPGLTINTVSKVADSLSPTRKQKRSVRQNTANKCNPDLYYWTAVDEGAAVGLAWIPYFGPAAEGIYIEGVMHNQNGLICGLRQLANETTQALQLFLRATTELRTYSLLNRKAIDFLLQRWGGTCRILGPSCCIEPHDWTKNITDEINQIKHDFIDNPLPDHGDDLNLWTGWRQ", "experiment": "ELISA, coated GP 1μg/mL", "data": [{"binder": "单克隆抗体5E1 (antibody, V domains shown) VH: EVQLVESGGGVVQSGRSLRLSCAASGFTFSNYGMHWVRRAPGKGLEWVAVISYDGSIKYYADAVQGRFTISRDNSKNTLYLQMNSVRAEDRAVYYCAKGSRVVATLNFFDLWGRGTLVTVSS VL: AIRMTQSPSSLSASVGDRVTITCRASQDIRNFLAWYQQKPEKAPKLLVYTASRRESGVPPRLSGSGSGTEYTLTISSLQPEDFATYYCQQYYSTPPTFGQGTKVDIKT", "values": [{"measurement": "binding result", "result": "no binding"}]}]}
